Experimental data reported in patent publication US20240309113A1 (SUZHOU TRANSCENTA THERAPEUTICS, published 2024).
Each block holds one binder with its values, some of them ahead of it.

Legend:
[1] = target: T1, human MASP-2 protein (recombinant, full-length, C-terminal tag) (human, UniProt O00187 16-686); assay: ELISA; plate coated with human MASP2, serially diluted antibody, anti-human IgG4 HRP, OD at 450nm; concentration axis printed as 'Antibody conc.(nM)'
T1 construct: The protein was secreted and purified on an anti-FLAG or anti-HIS column; also called hMASP-2; Full-length human MASP-2 protein; not shown: C-terminal HIS-tag or FLAG-tag

Recombinant Human MASP-1 = target: T2, Recombinant Human MASP-1 (human, UniProt P48740 20-699, limits assumed); assay: ELISA; plate coated with recombinant human MASP-1, mouse anti-human IgG4 HRP, OD450
T2 construct: Bought protein, construct not described
T2 sequence (looked up): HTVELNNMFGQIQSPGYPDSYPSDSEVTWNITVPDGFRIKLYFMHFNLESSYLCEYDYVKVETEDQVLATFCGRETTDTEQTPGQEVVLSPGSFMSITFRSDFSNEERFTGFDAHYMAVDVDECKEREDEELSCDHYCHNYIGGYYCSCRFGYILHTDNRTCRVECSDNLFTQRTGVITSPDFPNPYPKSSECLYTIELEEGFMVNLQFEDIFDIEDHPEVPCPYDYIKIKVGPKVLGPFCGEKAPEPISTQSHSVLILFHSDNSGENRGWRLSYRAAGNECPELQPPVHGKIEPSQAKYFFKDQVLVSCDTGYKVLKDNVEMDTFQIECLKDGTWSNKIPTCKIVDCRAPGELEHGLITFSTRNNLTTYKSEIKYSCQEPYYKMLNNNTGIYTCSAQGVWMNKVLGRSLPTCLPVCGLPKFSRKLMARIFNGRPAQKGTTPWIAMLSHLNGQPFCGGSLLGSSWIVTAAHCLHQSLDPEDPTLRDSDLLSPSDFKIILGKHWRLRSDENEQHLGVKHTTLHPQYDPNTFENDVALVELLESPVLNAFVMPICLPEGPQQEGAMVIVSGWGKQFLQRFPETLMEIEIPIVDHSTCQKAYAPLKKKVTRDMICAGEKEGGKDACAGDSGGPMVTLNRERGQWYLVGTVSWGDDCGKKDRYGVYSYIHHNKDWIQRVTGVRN

Cyno MASP2 = target: T3, Cyno MASP2; assay: ELISA; plate coated with cynomolgus MASP2 (1 ug/ml), serially diluted antibody, mouse anti-human IgG4 Fc HRP, OD450
T3 construct: Recombinant coated protein; distinct from m29 (native MASP-2 in cynomolgus serum); also called cynomolgus MASP-2 (recombinant, generated in house)

[2] = target: T1, human MASP-2 protein (recombinant, …); assay: BLI (ForteBio Octet RED96), antibody on Protein A biosensor, human MASP-2 in solution (100, 50, 25 nM)
Mouse MASP2 = target: T4, Mouse MASP2 (mouse, UniProt Q91WP0); assay: ELISA; plate coated with mouse MASP2 (1 ug/ml), serially diluted antibody, mouse anti-human IgG4 Fc HRP, OD450 (fit value printed for a flat curve)
T4 construct: purchased protein coated on the ELISA plate at 1 ug/ml

[3] = target: T5, Recombinant Human Complement Component C1s (human, UniProt P09871 16-688, limits assumed); assay: ELISA; plate coated with recombinant human C1s, serially diluted antibody, mouse anti-human IgG4 HRP, OD450 (fit value printed for a flat curve)
T5 construct: Bought protein, construct not described; also called human C1s
T5 sequence (looked up): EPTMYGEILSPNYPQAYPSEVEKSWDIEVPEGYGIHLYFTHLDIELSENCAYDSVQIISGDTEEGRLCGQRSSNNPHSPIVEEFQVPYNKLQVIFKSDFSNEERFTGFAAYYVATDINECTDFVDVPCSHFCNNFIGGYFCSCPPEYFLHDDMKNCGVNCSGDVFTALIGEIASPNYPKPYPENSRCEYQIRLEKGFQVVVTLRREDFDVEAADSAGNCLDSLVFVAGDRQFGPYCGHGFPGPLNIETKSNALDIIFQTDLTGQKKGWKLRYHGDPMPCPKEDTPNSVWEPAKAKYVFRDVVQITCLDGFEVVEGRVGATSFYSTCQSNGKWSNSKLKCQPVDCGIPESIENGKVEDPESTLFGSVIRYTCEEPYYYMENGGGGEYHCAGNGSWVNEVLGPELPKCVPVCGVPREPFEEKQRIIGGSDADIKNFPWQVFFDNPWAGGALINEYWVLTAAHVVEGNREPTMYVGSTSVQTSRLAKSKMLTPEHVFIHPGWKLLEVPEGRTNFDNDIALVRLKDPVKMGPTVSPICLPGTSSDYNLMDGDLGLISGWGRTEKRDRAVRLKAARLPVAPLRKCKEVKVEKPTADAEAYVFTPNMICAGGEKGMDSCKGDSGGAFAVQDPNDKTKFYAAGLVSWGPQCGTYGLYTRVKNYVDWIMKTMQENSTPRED

Recombinant Human MASP-3 = target: T6, Recombinant Human MASP-3 (human, UniProt P48740-2 20-728, limits assumed); assay: ELISA; plate coated with recombinant human MASP-3, mouse anti-human IgG4 HRP, OD450
T6 construct: Bought protein, construct not described
T6 sequence (looked up): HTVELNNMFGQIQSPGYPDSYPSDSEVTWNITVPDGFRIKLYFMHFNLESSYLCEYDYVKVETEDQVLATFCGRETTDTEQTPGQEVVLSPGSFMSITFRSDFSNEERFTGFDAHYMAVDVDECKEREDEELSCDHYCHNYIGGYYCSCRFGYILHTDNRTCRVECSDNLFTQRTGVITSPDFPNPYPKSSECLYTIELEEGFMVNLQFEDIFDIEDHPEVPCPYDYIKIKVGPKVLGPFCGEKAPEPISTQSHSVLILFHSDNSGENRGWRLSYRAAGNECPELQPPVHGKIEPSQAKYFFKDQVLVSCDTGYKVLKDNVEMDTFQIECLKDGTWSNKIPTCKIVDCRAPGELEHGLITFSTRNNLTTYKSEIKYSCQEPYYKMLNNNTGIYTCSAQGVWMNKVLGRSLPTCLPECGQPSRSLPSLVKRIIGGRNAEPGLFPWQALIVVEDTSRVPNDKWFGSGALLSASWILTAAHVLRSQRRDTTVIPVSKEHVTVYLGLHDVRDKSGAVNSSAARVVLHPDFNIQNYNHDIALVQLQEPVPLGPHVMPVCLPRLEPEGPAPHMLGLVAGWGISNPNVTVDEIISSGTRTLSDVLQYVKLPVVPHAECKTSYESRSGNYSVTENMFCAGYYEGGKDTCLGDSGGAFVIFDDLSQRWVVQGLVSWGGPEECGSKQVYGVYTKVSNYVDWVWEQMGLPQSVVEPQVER

[4] = target: T7, Human FcRn (FCGRT&B2M) protein with His tag (human, UniProt P55899 24-297; P61769 21-119); assay: BLI (ForteBio), His-tagged human FcRn on Ni-NTA biosensor, antibody in solution (500, 167, 56, 19 nM)
T7 construct: Carries a His tag (held on Ni-NTA biosensors)

[5] = target: T1, human MASP-2 protein (recombinant, …); assay: ELISA; plate coated with human MASP2 (1 ug/ml), serially diluted antibody, mouse anti-human IgG4 Fc HRP, OD450
Rat MASP2 = target: T8, Rat MASP2 (rat, UniProt Q9JJS8); assay: ELISA; plate coated with rat MASP2 (1 ug/ml), serially diluted antibody, mouse anti-human IgG4 Fc HRP, OD450 (fit value printed for a flat curve)
T8 construct: purchased protein coated on the ELISA plate at 1 ug/ml

[6] = target: T7, Human FcRn (FCGRT&B2M) protein with His …; assay: BLI (ForteBio), His-tagged human FcRn on Ni-NTA biosensor

T1 sequence (O00187 16-686): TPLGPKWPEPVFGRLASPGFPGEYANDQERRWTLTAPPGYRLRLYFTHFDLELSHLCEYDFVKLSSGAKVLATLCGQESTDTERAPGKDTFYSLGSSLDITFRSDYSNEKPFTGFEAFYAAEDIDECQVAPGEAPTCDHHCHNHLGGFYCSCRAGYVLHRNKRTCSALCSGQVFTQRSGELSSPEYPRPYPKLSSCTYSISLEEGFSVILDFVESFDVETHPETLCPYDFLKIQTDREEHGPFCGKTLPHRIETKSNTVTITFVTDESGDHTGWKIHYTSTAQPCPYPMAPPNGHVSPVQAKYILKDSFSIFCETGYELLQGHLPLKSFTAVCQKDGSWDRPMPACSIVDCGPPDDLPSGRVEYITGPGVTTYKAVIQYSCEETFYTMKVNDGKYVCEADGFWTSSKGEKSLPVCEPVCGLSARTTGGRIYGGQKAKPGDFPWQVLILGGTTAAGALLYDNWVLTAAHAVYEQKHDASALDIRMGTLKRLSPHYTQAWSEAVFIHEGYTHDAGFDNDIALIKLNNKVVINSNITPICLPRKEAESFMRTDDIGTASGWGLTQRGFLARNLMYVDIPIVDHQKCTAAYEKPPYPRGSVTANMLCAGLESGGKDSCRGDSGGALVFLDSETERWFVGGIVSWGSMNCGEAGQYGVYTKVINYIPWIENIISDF
T4 sequence (Q91WP0 20-685 limits assumed): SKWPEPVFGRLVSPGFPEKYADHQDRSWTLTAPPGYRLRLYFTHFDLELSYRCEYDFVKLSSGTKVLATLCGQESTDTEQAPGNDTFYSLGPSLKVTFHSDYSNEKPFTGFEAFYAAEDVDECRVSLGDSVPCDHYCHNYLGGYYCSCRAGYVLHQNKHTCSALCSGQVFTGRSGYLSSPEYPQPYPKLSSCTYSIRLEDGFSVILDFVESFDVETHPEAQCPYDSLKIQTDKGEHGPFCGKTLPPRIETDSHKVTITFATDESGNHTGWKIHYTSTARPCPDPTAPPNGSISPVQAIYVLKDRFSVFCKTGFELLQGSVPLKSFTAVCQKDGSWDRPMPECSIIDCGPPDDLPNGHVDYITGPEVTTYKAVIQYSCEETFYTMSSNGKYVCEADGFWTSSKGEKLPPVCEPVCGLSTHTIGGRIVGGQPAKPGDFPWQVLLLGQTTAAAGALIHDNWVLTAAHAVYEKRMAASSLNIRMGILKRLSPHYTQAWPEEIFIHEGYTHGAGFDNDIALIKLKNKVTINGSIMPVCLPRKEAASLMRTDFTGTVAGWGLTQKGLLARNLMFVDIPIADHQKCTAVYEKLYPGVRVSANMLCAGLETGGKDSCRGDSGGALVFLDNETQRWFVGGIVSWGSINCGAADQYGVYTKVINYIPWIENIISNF
T3 sequence (MASP-2 polypeptide, as listed by the source limits assumed): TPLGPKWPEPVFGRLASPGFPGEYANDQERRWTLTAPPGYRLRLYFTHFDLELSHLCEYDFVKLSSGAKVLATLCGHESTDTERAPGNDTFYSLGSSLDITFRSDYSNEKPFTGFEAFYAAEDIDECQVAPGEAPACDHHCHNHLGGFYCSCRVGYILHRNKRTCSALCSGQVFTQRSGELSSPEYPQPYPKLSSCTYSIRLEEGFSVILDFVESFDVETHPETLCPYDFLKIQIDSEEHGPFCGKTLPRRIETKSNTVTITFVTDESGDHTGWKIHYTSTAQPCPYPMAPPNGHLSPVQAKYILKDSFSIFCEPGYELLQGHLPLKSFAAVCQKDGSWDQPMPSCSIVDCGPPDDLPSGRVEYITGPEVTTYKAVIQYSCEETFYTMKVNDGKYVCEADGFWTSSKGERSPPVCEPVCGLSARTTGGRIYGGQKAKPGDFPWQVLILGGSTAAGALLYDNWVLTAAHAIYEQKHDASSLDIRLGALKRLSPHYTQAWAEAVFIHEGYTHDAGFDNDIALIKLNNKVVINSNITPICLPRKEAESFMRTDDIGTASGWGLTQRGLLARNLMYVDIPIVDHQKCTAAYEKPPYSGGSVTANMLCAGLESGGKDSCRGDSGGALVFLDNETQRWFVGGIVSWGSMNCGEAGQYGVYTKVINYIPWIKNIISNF
T8 sequence (Q9JJS8 20-685 limits assumed): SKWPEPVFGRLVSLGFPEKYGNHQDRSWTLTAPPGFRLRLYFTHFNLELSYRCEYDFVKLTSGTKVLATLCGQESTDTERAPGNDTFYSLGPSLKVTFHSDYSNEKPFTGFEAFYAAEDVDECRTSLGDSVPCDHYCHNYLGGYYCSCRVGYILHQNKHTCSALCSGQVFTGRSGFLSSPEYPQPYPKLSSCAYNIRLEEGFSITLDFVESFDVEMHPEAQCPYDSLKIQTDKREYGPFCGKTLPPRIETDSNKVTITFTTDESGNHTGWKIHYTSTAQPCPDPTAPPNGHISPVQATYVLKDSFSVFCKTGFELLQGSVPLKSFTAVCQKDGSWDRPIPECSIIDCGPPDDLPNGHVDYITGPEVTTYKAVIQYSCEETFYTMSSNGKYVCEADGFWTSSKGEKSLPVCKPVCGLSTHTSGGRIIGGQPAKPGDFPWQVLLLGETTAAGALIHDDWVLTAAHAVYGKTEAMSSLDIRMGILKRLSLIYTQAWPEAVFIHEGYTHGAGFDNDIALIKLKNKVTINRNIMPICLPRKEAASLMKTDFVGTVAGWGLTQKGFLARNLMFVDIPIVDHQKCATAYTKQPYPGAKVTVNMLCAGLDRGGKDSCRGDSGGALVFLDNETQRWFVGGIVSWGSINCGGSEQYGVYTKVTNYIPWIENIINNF

EC50 [1]: 0.0162 nM
binding result (Recombinant Human MASP-1): no binding (tested: about 2 ug/ml)
EC50 (Cyno MASP2): 0.0111 µg/mL
Kd [2]: < 0.001 nM
koff [2]: < 1e-07 s⁻¹
kon [2]: 35300 M⁻¹ s⁻¹
EC50 (Mouse MASP2): ~672 µg/mL
EC50 [3]: ~1.65 µg/mL
binding result (Recombinant Human MASP-3): no binding (tested: about 2 ug/ml)
Kd [4]: 6.1 nM
koff [4]: 0.00317 s⁻¹
kon [4]: 520000 M⁻¹ s⁻¹
EC50 [5]: 0.0127 µg/mL
EC50 (Rat MASP2): 17.2 µg/mL
B1: 129C10 HaLa (129C10-hu) (antibody, human IgG4)
VH: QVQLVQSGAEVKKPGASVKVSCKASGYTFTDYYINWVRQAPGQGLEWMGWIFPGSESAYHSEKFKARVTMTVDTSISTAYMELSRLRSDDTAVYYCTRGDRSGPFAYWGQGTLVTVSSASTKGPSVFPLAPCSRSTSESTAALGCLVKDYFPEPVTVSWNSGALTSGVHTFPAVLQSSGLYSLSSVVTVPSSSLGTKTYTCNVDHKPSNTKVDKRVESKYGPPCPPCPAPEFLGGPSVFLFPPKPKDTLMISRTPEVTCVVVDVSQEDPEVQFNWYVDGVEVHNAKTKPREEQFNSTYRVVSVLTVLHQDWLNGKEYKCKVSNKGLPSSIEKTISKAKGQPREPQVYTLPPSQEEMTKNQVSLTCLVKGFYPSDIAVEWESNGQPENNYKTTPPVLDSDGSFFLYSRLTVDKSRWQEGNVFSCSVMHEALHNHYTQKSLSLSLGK
VL: DVVMTQSPLSLPVTLGQPASISCKSSQSLLYSNGKTYLNWLQQRPGQSPRRLIYLVSKLDSGVPDRFSGSGSGTDFTLKISRVEAEDVGVYYCVQVTHFPFTFGQGTKLEIKRTVAAPSVFIFPPSDEQLKSGTASVVCLLNNFYPREAKVQWKVDNALQSGNSQESVTEQDSKDSTYSLSSTLTLSKADYEKHKVYACEVTHQGLSSPVTKSFNRGEC
notes: Humanized; also called 129C10-hu-WT; Hu129C10_HaLa-hIgG4

Kd [4]: 1.88 nM
koff [4]: 0.00101 s⁻¹
kon [4]: 536000 M⁻¹ s⁻¹
fold increase of binding affinity against 129C10-hu [6]: 3 fold
B2: 129C10-hu-YTE (Hu129C10 hIgG4_YTE kappa) (antibody)
heavy: QVQLVQSGAEVKKPGASVKVSCKASGYTFTDYYINWVRQAPGQGLEWMGWIFPGSESAYHSEKFKARVTMTVDTSISTAYMELSRLRSDDTAVYYCTRGDRSGPFAYWGQGTLVTVSSASTKGPSVFPLAPCSRSTSESTAALGCLVKDYFPEPVTVSWNSGALTSGVHTFPAVLQSSGLYSLSSVVTVPSSSLGTKTYTCNVDHKPSNTKVDKRVESKYGPPCPPCPAPEFLGGPSVFLFPPKPKDTLYITREPEVTCVVVDVSQEDPEVQFNWYVDGVEVHNAKTKPREEQFNSTYRVVSVLTVLHQDWLNGKEYKCKVSNKGLPSSIEKTISKAKGQPREPQVYTLPPSQEEMTKNQVSLTCLVKGFYPSDIAVEWESNGQPENNYKTTPPVLDSDGSFFLYSRLTVDKSRWQEGNVFSCSVMHEALHNHYTQKSLSLSLGK
light: B1 VL
notes: also called Hu129C10_HaLa-hIgG4 with amino acid substitutions M252Y/S254T/T256E [YTE]
